Experimental data reported in the supplement of paper PMC9170038.

Tested on: MS2 coat protein
Experiment: apparent KD of MS2 coat protein; designed switch direction (-1 OFF switch, 1 ON switch): -1; higher = weaker reporter binding
In short: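 Apparent KD, taken as the median over clusters for each design, was obtained by curve-fitting normalised cluster fluorescence. Designed RNA switches had been transcribed on Illumina chips by stalled E. coli RNA polymerase and titrated with SNAP-549-labelled MS2 coat protein, doubling from 0.7 or 1.5 nM to 3 µM.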

[1] = input ligand: microRNA oligo, concentration not stated
[2] = Eterna round: R95, input ligand: FMN 200 uM
[3] = Eterna round: R95, input ligand: microRNA oligo, concentration not stated
[4] = Eterna round: R95, input ligand: none

Row | Sequence | apparent KD of MS2 coat protein (input ligand: FMN 200 uM) [nM] | apparent KD of MS2 coat protein [1] [nM] | apparent KD of MS2 coat protein (input ligand: none) [nM] | apparent KD of MS2 coat protein [2] [nM] | apparent KD of MS2 coat protein [3] [nM] | apparent KD of MS2 coat protein [4] [nM]
1 | AAACAACGGACAGGAUAUCCGAAAAUAAAGCUAGGAGAAGGGUCGAAAACAUGAGGAUCACCCAUGUGCGUGGCGGGUUCUUAG [Zaerqu] (Eterna round: R96, puzzle: Exclusion NG 1) | 25.6 | 13.4 | 21.2 |  |  | 
2 | GCUCAACAUGAGGAUCACCCAUGUGAGGAUAUGCGAAUUUCAUCAAAAGAUGAAAUUUGCAGAAGGCACUGAGC [Omei Ex1 A35] (Eterna round: R97, puzzle: Exclusion 1) | 17.4 |  | 16.5 |  |  | 
3 | GGAUCGAGUGUGAGGAUAUGCAGGUCCUUGGAUCUGCAGAAGGCACAUGAGGAUCACCCAUGUGGAGACGGUCC [Mat - Exclusion 4 - JL Mod - D75] (puzzle: Brourd's mod of Exclusion 4) |  |  |  | 406 | 64.2 | 110
4 | CGUACUAACACGAAAGUGUUAGUACAAUAAGCUUGUGAAACAUGAGGAUCACCCAUGUCCUCAUAAGCUCGUCUUAU [salish99_TOv2_r3_007] (puzzle: Sensor v3, turn-off variant 2) |  |  |  | 17.1 | 967 | 15.7
5 | ACAUGAGGAUCACCCAUGUCCGGUUGGUCUGUUCCGGCUGUCGAGGAUAUAGUCCGGUGUUCGCGCUAGAAGGCGAGGGCUGGA [Aenatbe mod 47] (Eterna round: R96, puzzle: Exclusion NG 3) | 1180 | 227 | 397 |  |  | 
6 | CCCACGUCAGGAUAUCUAAAGGUCCGAAAUAACGGGACUGCAGAGAAGGGACAUGAGGAUCACCCAUGUCCUCG [EX4 C.21] (Eterna round: R97, puzzle: Exclusion 4) | 27 |  | 18 |  |  | 
7 | GAUUAUGCGAGCUUUAGGGACAUGAGGAUCACCCAUGUUCGUCUUAUUGAUCUAGGUACGCUGACAUACCUAAAUCU [Mod of one of jandersonlee's solutions 2] (puzzle: Sensor v3, turn-off variant 1) |  |  |  | 22.4 | 36.1 | 24.4
8 | GCUUUUGGGCAAGGAUAUCCUGCGCGGUUCCGGUUCGUGUCUGUCACAUGAGGAUCACCCAUGUGGGAGAAGGUGCCUGUGGUG [Design 72] (Eterna round: R96, puzzle: Exclusion NG 2) | 28.3 | 13.6 | 18.4 |  |  | 
9 | UGCAGACGAGGAUAUAAACGAUAUAACAUGAGGAUCACCCAUGUACGAUCGAAUGAUCGUUUAGAAGGCGUCUGCU [E5/10-A3] (Eterna round: R97, puzzle: Exclusion 5) | 16.1 |  | 16.2 |  |  | 
10 | UCCGAACAUGAGGAUCACCCAUGUCAGGAUAUAUUAAAGAAAGCCCGCGAAUGUGGGUAUAGAAGGGACAUGAA [Zaatinxe] (Eterna round: R97, puzzle: Exclusion 1) | 15.8 |  | 15.6 |  |  | 
11 | GCAGCAAAUUCCAUUAAAACCACAUGAGGAUCACCCAUGUCUCAGGAUAUGGUCUGGAUUACAGGCCAGAAGGGAGAAAGCUGC [Eli exng3 - 055] (Eterna round: R96, puzzle: Exclusion NG 3) | 10.1 | 11.9 | 16.3 |  |  | 
12 | ACUGUGACGUAGGAUAUCUCCUAAUUGCGCCGGAGAGAAGGACGUACAUGAGGAUCACCCAUGUGCCCUCGGAA [EX6 B.13] (Eterna round: R97, puzzle: Exclusion 6) | 300 |  | 56.4 |  |  | 
13 | AACAUGAGGAUCACCCAUGUAAUGGACAGAUCACCGACCACGCAGGAUAUUAGGCCUCAAAUUCUUAAGAAGGGCGAGGAUGUG [Eternabot solution 49] (Eterna round: R96, puzzle: Exclusion NG 3) | 50.3 | 52 | 66.9 |  |  | 
14 | AUAAGCUUUGAGAUCCUUAACAUGAGGAUCACCCAUGUUCGUCUUAUGAUGGUCUGAUCCCUGAGGAUCGGACCGUC [JL-sv1-2.01 Brourd Mod] (puzzle: Sensor v3, turn-off variant 1) |  |  |  | 456 | 13.5 | 416
15 | AGAAAGGCAGGAUAUCGAUAAUAAAACAUGAGGAUCACCCAUGUGAGGCCGCGUGUAACUCGAGAAGGGCUACACG [Biarquma] (puzzle: Exclusion 5) |  |  |  | 16.1 | 16.6 | 15.4
16 | GAUUGACAUGAGGAUCACCCAUGUGAGGAUAUCGGCCGGACCUUGUUAGCUUCCACCGCGAGAAGGCACAUCGG [Exclusion 1 V30] (puzzle: Exclusion 1) |  |  |  |  | 17 | 
17 | CUGGUCCGAGGAUAUAUUAAGUGAUACAUGAGGAUCACCCAUGUAAUUUAAUGGAUAUAAAUAGAAGGCGGACUAG [Mat - Exclusion 5 - JL mod - D48] (puzzle: Exclusion 5) |  |  |  | 42.9 | 26.4 | 32.8
18 | GCAUGAUACUAGGAUAUCAGCAUACUUCAAUGUUGAGAAGGAGUAACAUGAGGAUCACCCAUGUAUCCAACAUG [Exclusion 6 - 4:a] (puzzle: Exclusion 6) |  |  |  |  | 38.5 | 
19 | AUCAGCUCGUGAGGAUAUGCACAUGAGGAUCACCCAUGUAAGAUCAAGCUGCUUCGGCAGCAAGUGCAGAAGGUACGAGCUGAU [ENG2/9-C2] (Eterna round: R96, puzzle: Exclusion NG 2) | 206 | 128 | 234 |  |  | 
20 | UAGUUAUUCACAGGAUAUCGCCUCUUAUUACAUGAGGAUCACCCAUGUUUACUUAGUUACAUGUUCGAGAAGGGUGUAGCCGUU [JR_ExcNG2_Sub044] (Eterna round: R96, puzzle: Exclusion NG 2) |  | 301 |  |  |  | 
21 | UGAUCUAGCGGAGGAUAUACAUGAGGAUCACCCAUGUAGAUGAGUGUACCGUAGUGCACUCUUGUGUAGAAGGCCGCUAGAUCU [JL ENG2 3.56] (Eterna round: R96, puzzle: Exclusion NG 2) | 24.8 | 12.6 | 16.7 |  |  | 
22 | AGGUGUAGAGGAUAUCUCUUCUCUCACAUGAGGAUCACCCAUGUCCUGGGUACCUAGGAGAGAGAAGGCUACACCA [Omei Ex5 D11] (Eterna round: R97, puzzle: Exclusion 5) | 1370 |  | 587 |  |  | 
23 | UGUCCAAUACAGGAUAUUCUCGCGUAGUAGCAAGGAGAAGGGUAGACAUGAGGAUCACCCAUGUGAUUCAUCUG [Eternabot (L2) Solution 68] (Eterna round: R97, puzzle: Exclusion 6) | 438 |  | 575 |  |  | 
24 | GUUAACGCAGGAUAUUAGUACAUGUACAUGAGGAUCACCCAUGUUUAGUGGGUCUAGGAAUAAGAAGGGCGAUGAA [JR_Ex5_Sub007] (Eterna round: R97, puzzle: Exclusion 5) | 280 |  | 535 |  |  | 
25 | GUGUACAGAGGAUAUACACGAGUAGUUACGAAAGUAACUACACAUGAGGAUCACCCAUGUAGAAGGCUGUACAC [Dot plot directed] (puzzle: Exclusion 2) |  |  |  |  | 20.4 | 
26 | GCUUGUGGGCAAGGAUAUCCUACGUUGUUCUGGUUCGUGUCUGUCACAUGAGGAUCACCCAUGUGGGAGAAGGUGCAUUUGGUG [Design 61] (Eterna round: R96, puzzle: Exclusion NG 2) |  | 12.9 |  |  |  | 
